Biological target: HA-tagged cMyBP-C construct C6–C8 (human)
Assay: co-IP; HEK293 cells co-expressing cMyc-tagged BT (RyR) constructs with HA-tagged cMyBP-C constructs; HA–cMyBP-C immunoprecipitated with Ab^HA from solubilised cell lysates, co-precipitated BT detected by western blotting with Ab^cMyc; non-immune rabbit IgG as negative control; densitometry

Sequence of HA-tagged cMyBP-C construct C6–C8 (human) (Q14896 whole entry): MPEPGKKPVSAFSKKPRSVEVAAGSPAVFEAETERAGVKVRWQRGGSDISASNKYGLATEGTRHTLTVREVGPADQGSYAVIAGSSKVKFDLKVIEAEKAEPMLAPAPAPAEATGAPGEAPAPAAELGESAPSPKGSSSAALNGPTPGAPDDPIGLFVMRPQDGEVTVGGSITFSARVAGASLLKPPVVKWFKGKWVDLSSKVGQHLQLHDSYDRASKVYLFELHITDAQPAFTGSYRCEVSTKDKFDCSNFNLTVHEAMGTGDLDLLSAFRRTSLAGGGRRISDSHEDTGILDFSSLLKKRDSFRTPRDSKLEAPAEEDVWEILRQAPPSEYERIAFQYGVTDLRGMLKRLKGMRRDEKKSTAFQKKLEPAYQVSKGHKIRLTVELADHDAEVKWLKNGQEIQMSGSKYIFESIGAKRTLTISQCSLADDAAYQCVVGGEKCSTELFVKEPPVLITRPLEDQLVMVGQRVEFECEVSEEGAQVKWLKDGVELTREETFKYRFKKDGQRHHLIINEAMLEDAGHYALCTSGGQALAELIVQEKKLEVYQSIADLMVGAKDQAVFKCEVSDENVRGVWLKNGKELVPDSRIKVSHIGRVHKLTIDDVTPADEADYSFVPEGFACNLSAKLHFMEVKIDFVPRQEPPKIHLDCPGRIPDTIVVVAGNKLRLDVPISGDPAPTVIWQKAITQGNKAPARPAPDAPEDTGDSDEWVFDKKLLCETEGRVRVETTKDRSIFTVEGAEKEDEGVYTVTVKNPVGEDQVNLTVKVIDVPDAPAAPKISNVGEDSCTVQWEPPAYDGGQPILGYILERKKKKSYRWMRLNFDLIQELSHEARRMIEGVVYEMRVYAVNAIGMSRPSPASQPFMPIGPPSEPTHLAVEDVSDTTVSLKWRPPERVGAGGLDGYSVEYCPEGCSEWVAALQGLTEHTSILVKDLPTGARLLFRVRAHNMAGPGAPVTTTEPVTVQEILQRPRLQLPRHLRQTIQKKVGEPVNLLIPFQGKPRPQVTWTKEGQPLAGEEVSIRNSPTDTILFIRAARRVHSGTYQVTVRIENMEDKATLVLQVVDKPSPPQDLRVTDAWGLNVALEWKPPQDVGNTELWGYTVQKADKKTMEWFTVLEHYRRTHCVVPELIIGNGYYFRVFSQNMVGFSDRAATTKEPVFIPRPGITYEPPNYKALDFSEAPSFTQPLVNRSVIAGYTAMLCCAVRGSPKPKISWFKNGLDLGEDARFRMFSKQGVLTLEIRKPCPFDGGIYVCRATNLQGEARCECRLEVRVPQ

Q: With “BT4L (cMyc-tagged RyR2 residues 1–906) (from UniProt Q92736 1-906) (domain or fragment)” as the substance, how does the fold signal against C8–C10 read?
A: 3 fold
